This is an account of results in patent US20230227547A1 (IPROGEN BIOTECH, published 2023).

Assay [1] has as its target T1, Epithelial cell adhesion molecule (EpCAM) (human, UniProt P16422 24-314).
T1 construct: whole, on cells
T1 sequence (looked up): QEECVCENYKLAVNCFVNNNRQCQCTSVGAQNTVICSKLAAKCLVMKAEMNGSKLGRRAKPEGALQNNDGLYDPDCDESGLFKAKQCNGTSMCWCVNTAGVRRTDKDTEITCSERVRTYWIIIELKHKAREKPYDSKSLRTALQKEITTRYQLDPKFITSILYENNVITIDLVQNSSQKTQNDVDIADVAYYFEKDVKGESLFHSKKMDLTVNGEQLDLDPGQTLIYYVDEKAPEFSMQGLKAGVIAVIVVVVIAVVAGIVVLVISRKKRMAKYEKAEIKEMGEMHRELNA
The assay can be described thus: fluorescence microscopy, goat anti-human IgG-AlexaFluor488, LnCap cells, 100 nM mAb, 3 h.
Method: (§1) Delivery assay. […] The permeabilized cells were then incubated with 5% (v/v) FBS, 0.05% (v/v) Tween-20 in PBS at 37 degree Celsius incubator for 30 minutes. […] After incubation, the labelled cells were washed twice with PBS, and stored in storage buffer [5% (v/v) FBS in PBS] at 4 degree Celsius until fluorescence microscope imaging.

In assay [2] the target is T1, Epithelial cell adhesion molecule …. Nature of the assay: fluorescence microscopy, goat anti-human IgG-AlexaFluor488, LnCap cells, 100 nM mAb-LL37, 3 h.
Method: as §1
The target in assay [3] is T2, sodium-dependent phosphate transport protein 2B (NaPi2b) (human, UniProt O95436 1-690).
T2 construct: whole, on cells
T2 sequence (looked up): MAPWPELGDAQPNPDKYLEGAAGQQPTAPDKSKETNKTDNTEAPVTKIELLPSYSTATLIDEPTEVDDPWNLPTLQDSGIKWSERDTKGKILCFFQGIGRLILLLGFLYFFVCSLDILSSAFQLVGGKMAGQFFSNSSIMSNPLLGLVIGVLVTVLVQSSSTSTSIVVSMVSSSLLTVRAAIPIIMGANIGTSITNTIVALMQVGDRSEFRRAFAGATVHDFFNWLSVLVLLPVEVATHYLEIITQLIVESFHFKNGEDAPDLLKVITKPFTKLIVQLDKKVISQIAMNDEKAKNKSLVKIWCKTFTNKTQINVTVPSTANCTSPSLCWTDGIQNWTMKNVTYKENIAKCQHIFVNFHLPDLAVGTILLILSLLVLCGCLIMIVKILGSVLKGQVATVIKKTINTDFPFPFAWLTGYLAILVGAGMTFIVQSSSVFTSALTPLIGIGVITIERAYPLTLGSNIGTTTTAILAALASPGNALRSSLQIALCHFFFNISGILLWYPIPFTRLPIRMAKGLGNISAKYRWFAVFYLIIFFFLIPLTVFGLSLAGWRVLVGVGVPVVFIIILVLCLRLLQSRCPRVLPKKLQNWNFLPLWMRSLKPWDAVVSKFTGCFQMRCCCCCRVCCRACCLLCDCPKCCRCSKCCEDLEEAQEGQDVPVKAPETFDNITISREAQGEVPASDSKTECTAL
Nature of the assay: fluorescence microscopy, goat anti-human IgG-AlexaFluor488, OVCAR3 cells, 100 nM mAb-LL37, 3 h.
Method: as §1

Another assay has as its target T3, CD33A (human, UniProt P20138 18-364).
T3 construct: whole, on cells
Nature of the assay: summary sentence of Example 3.

Assay [4] deals with T2, sodium-dependent phosphate transport …. The assay can be described thus: fluorescence microscopy, goat anti-human IgG-AlexaFluor488, OVCAR3 cells, 100 nM mAb, 3 h.
Method: as §1
For the next assay, the target named is T4, folate receptor (human, UniProt P15328 25-234).
T4 construct: whole, on cells; also called folate receptor alpha
T4 sequence (P15328 25-234): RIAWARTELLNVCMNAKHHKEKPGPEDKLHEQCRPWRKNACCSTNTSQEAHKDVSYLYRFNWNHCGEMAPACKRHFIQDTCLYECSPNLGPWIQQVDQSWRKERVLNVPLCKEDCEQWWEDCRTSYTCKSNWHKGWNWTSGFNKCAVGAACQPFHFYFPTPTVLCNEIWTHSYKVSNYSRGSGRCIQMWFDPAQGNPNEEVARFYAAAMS
Nature of the assay: summary sentence of Example 3.

T3 sequence (P20138 18-364): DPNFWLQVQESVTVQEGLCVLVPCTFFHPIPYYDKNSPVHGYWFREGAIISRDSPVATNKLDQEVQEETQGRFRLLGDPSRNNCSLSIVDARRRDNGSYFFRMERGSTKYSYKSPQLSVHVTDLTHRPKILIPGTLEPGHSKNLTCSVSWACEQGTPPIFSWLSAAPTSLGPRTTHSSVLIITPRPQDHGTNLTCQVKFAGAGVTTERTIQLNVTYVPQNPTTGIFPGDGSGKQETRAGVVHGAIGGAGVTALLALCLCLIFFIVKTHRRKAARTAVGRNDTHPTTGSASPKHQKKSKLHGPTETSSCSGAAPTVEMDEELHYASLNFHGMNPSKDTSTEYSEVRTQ

B1: Anti-EpCAM mAb, Citatuzumab (antibody, human IgG1, kappa)
heavy: not shown
light: DIQMTQSPSSLSASVGDRVTITCRSTKSLLHSNGITYLYWYQQKPGKAPKLLIYQMSNLASGVPSRFSSSGSGTDFTLTISSLQPEDFATYYCAQNLEIPRTFGQGTKVEIKRTVAAPSVFIFPPSDEQLKSGTASVVCLLNNFYPREAKVQWKVDNALQSGNSQESVTEQDSKDSTYSLSSTLTLSKADYEKHKVYACEVTHQGLSSPVTKSFNRGECGGGGSLPMTGGHG
Regarding B1, in assay [1], the binding result was “binds”.

B2: Citatuzumab-LL37 (LL37-conjugated anti-EpCAM antibody citatuzumab) (antibody, human IgG1, kappa)
heavy: not shown
light: DIQMTQSPSSLSASVGDRVTITCRSTKSLLHSNGITYLYWYQQKPGKAPKLLIYQMSNLASGVPSRFSSSGSGTDFTLTISSLQPEDFATYYCAQNLEIPRTFGQGTKVEIKRTVAAPSVFIFPPSDEQLKSGTASVVCLLNNFYPREAKVQWKVDNALQSGNSQESVTEQDSKDSTYSLSSTLTLSKADYEKHKVYACEVTHQGLSSPVTKSFNRGECGGGGSLPMTGGLLGDFFRKSKEKIGKEFKRIVQRIKDFLRNLVPRTES
For B2, the binding result in assay [2] is “binds”.

B3: Lifastuzumab-LL37 (LL37-linked anti-NaPi2b mAb) (antibody, human IgG1, kappa)
heavy: not shown
light: DIQMTQSPSSLSASVGDRVTITCRSSETLVHSSGNTYLEWYQQKPGKAPKLLIYRVSNRFSGVPSRFSGSGSGTDFTLTISSLQPEDFATYYCFQGSFNPLTFGQGTKVEIKRTVAAPSVFIFPPSDEQLKSGTASVVCLLNNFYPREAKVQWKVDNALQSGNSQESVTEQDSKDSTYSLSSTLTLSKADYEKHKVYACEVTHQGLSSPVTKSFNRGECGGGGSLPMTGGLLGDFFRKSKEKIGKEFKRIVQRIKDFLRNLVPRTES
As for B3, in assay [3], the binding result is on record as “binds”.

B4: Anti-CD33A mAb (Vadastuximab)-LL37 (antibody, human IgG1, kappa)
heavy: not shown
light: DIQMTQSPSSLSASVGDRVTINCKASQDINSYLSWFQQKPGKAPKTLIYRANRLVDGVPSRFSGSGSGQDYTLTISSLQPEDFATYYCLQYDEFPLTFGGGTKVEIKRTVAAPSVFIFPPSDEQLKSGTASVVCLLNNFYPREAKVQWKVDNALQSGNSQESVTEQDSKDSTYSLSSTLTLSKADYEKHKVYACEVTHQGLSSPVTKSFNRGECGGGGSLPMTGGLLGDFFRKSKEKIGKEFKRIVQRIKDFLRNLVPRTES
B4: the binding result in the assay with CD33A is recorded as “binds”.

B5: Anti-NaPi2b mAb, Lifastuzumab (antibody, human IgG1, kappa)
heavy: not shown
light: DIQMTQSPSSLSASVGDRVTITCRSSETLVHSSGNTYLEWYQQKPGKAPKLLIYRVSNRFSGVPSRFSGSGSGTDFTLTISSLQPEDFATYYCFQGSFNPLTFGQGTKVEIKRTVAAPSVFIFPPSDEQLKSGTASVVCLLNNFYPREAKVQWKVDNALQSGNSQESVTEQDSKDSTYSLSSTLTLSKADYEKHKVYACEVTHQGLSSPVTKSFNRGECGGGGSLPMTGGHG
As to B5, the binding result in assay [4] is listed as “binds”.

B6: Anti-folate receptor mAb-LL37 (Mirvetuximab-LL37) (antibody, human IgG1, kappa)
heavy: not shown
light: DIVLTQSPLSLAVSLGQPAIISCKASQSVSFAGTSLMHWYHQKPGQQPRLLIYRASNLEAGVPDRFSGSGSKTDFTLTISPVEAEDAATYYCQQSREYPYTFGGGTKLEIKRTVAAPSVFIFPPSDEQLKSGTASVVCLLNNFYPREAKVQWKVDNALQSGNSQESVTEQDSKDSTYSLSSTLTLSKADYEKHKVYACEVTHQGLSSPVTKSFNRGECGGGGSLPETGGLLGDFFRKSKEKIGKEFKRIVQRIKDFLRNLVPRTES
notes: also called anti-folate receptor mAb (mirvetuximab) with LL37 conjugation
As for B6, the binding result with folate receptor is reported as “binds”.
